In PMC5437018 one finds Kd, fold decrease in affinity against wild type and affinity as percent of the wild-type interaction data, which are given here for seven substances.

Test [1] concerns the target PP1 (Homo sapiens) (UniProt P62136). The settings on record: cited from earlier work.
For test [2] the target is unchanged. The settings on record: cited from earlier work. The source holds these as a separate data set.
For test [3] the target is unchanged. The settings on record: cited from earlier work. The source holds these as a separate data set.
Test [4] has as its target Recombinant purified α-isoform of mammalian PP1 (residues 1–330), tag cleaved (mammalian) (UniProt P62136). The experiment in a line: SPR; Biacore 3000; PP1 covalently coupled to a CM5 chip; Rif1 CRI, mutants and peptide injected at 20 µl/min in 10 mM Tris-HCl pH 7.5, 250 mM NaCl, 1 mM DTT, 2 mM MnCl2, 0.005% Tween 20; 1:1 binding model.
For test [5], the target named is PP1 (Homo sapiens) (UniProt P62136). The settings on record: cited from earlier work. This is another data set of the same source.
PP1 (Homo sapiens), sequence (P62136 2-330): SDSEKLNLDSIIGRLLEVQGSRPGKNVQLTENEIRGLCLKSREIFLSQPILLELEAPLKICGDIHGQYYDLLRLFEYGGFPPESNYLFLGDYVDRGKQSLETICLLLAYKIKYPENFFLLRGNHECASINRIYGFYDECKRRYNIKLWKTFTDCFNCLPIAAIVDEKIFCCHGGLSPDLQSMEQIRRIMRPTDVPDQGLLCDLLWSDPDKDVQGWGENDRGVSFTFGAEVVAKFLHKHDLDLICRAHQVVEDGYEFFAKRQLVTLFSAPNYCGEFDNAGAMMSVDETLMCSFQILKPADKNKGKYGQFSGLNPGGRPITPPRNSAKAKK

Read-outs that look alike come from different tables or passages of the source.

Recombinant purified α-isoform of mammalian PP1 (residues 1–330), tag cleaved (mammalian), sequence (P62136 whole entry, the tested form may be a part, canonical isoform): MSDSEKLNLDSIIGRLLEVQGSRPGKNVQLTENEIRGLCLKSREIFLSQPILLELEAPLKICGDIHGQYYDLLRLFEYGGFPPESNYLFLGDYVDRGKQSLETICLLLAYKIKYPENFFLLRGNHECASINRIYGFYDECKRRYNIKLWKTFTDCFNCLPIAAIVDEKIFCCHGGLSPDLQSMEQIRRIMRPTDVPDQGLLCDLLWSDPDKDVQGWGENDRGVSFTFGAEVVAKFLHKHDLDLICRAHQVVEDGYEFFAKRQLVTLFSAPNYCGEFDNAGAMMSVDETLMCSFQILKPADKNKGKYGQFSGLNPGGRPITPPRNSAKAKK
NIPP1, sequence (Q12972 whole entry): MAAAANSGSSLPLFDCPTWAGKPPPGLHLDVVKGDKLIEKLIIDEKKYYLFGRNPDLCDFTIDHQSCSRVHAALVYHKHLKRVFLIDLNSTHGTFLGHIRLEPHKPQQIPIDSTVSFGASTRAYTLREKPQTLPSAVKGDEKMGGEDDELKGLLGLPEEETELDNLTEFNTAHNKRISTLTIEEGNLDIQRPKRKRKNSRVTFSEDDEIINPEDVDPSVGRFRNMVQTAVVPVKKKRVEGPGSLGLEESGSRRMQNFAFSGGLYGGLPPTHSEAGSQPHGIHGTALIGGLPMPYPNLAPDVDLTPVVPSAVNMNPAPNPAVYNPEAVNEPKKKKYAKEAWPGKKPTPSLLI
PNUTS, sequence (Q96QC0 whole entry): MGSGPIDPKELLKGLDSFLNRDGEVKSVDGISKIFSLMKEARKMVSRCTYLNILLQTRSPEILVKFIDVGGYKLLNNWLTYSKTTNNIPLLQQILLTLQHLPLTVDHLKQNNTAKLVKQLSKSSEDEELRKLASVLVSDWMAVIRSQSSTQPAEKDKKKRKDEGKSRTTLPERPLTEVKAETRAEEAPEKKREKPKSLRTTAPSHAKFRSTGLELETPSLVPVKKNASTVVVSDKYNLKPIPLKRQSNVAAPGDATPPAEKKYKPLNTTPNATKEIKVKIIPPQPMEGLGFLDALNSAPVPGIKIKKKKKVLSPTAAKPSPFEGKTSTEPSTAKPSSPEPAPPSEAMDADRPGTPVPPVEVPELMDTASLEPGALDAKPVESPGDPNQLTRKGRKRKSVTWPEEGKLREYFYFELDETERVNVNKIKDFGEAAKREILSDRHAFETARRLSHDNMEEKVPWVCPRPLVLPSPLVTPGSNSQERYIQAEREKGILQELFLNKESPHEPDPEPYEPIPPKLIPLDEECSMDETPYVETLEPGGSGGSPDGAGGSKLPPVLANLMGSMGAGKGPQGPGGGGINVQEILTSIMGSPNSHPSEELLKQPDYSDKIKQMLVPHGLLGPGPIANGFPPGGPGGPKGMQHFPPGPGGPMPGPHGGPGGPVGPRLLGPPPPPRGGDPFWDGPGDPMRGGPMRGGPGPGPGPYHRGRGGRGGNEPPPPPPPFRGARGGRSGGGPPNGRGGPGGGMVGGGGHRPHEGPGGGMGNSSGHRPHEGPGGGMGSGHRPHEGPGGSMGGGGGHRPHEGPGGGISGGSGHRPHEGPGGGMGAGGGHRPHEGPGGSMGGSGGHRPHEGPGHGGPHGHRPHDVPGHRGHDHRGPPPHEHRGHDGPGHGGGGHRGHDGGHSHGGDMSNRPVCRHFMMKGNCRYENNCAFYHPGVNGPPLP
spinophilin, sequence (O35274 417-494): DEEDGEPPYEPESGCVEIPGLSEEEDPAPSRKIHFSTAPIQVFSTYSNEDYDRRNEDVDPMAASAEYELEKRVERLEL
GADD34, sequence (O75807 whole entry): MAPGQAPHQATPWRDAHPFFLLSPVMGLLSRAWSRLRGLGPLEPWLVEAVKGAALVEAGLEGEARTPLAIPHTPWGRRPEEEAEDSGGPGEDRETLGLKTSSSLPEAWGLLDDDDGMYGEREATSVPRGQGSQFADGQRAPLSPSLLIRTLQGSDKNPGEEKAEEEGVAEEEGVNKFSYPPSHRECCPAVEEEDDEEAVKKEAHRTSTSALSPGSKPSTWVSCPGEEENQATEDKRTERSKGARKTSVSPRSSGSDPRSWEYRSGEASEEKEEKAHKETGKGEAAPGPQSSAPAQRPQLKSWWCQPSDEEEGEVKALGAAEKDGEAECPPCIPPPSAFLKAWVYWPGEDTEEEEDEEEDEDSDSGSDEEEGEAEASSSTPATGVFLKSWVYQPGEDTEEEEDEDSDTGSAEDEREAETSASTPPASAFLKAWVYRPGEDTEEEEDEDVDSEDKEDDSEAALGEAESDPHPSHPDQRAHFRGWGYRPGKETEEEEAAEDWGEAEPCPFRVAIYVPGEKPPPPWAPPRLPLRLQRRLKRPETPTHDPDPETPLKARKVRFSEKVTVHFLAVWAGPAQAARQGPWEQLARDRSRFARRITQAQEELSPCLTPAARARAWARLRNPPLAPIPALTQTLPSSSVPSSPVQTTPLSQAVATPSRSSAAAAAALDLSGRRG

Take GADD34 (from UniProt O75807): in test [1], the Kd is 62 nM.
As to NIPP1 (from UniProt Q12972), in test [2], the dissociation constant (Kd) is 73 nM.
PNUTS (from UniProt Q96QC0): the dissociation constant (Kd) in test [3] was 8.7 nM.
“Rif1 CRI (2093–2190) RVSF to RASF (from UniProt Q6PR54 2093-2190) (domain or fragment)”: the fold decrease in affinity against wild type in test [4] was 20 fold.
Regarding “Rif1 CRI (2093–2190) RVSF to RVSA (from UniProt Q6PR54 2093-2190) (domain or fragment)”, the affinity as percent of the wild-type interaction in test [4] was below 0.1%.
As to “Rif1 CRI (2093–2190) SILK to SAAA (from UniProt Q6PR54 2093-2190) (domain or fragment)”, in test [4], the fold decrease in affinity against wild type was found to be 20 fold.
On to spinophilin (from UniProt O35274), for which the Kd in test [5] is 9.3 nM.
